From patent US20180291110A1 (Hoffmann-La Roche, published 2018)

Target: T1, human transferrin receptor (recombinant, for surface plasmon resonance) (human, UniProt P02786 89-760)
T1 construct: also called huTfR; human transferrin receptor-biotinylated
Assay: SPR 25C

T1 sequence (P02786 89-760 limits assumed): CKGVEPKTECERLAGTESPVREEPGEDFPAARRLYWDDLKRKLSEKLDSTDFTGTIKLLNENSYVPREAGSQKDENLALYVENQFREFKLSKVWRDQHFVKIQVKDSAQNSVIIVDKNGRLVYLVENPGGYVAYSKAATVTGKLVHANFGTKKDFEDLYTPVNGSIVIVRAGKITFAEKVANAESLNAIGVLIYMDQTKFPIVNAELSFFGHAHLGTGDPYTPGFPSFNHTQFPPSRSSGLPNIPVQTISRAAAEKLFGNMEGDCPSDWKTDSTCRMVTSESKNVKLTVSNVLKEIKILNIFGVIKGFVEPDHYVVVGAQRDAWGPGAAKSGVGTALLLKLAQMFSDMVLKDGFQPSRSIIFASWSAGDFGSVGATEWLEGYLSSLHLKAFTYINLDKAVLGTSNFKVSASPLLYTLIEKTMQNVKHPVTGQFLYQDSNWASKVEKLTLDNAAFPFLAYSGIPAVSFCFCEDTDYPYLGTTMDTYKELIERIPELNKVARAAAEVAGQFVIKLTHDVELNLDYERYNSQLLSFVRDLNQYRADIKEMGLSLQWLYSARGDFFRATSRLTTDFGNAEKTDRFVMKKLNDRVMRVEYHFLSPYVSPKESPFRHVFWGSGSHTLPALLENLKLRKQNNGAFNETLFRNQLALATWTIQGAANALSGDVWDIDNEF

| Binder | koff |
| --- | --- |
| 2/99 VH8/VL4 (antibody, V domains shown) VH: QQLVETGGGLIQPGGSLRLSCAASGFSLSSYAMSWVRQAPGKGLEWIGYIWSGGSTDYASWAKGRFTISKTSTTLYLQMNSLRAEDTAVYYCARRYGTSYPDYGDANGFDPWGQGTLVTVSS VL: AYQMTQSPSSLSASVGDRVTITCRASQSISSYLSWYQQKPGKAPKLLIYRASTLASGVPSRFSGSGSGTDFTLTISSLQPEDFATYYCQQSYSSSNVDNTFGGGTKVEIK | 0.000788 s⁻¹ |
| 2/99 VH2/VL5 (antibody, V domains shown) VH: EVQLVETGGGLIQPGGSLRLSCAASGFSLSSYAMSWVRQAPGKGLEWVGYIWSGGSTDYADSVKGRFTISRDNSKNTLYLQMNSLRAEDTAVYYCARRYGTSYPDYGDANGFDPWGQGTLVTVSS VL: DIQMTQSPSSLSASVGDRVTITCRASQSISSYLSWYQQKPGKAPKLLIYRASTLASGVPSRFSGSGSGTDFTLTISSLQPEDFATYYCQQSYSSSNVDNTFGGGTKVEIK | 0.00262 s⁻¹ |
| 2/99 VH8/VL5 (antibody, V domains shown) VH: QQLVETGGGLIQPGGSLRLSCAASGFSLSSYAMSWVRQAPGKGLEWIGYIWSGGSTDYASWAKGRFTISKTSTTLYLQMNSLRAEDTAVYYCARRYGTSYPDYGDANGFDPWGQGTLVTVSS VL: DIQMTQSPSSLSASVGDRVTITCRASQSISSYLSWYQQKPGKAPKLLIYRASTLASGVPSRFSGSGSGTDFTLTISSLQPEDFATYYCQQSYSSSNVDNTFGGGTKVEIK | 0.00107 s⁻¹ |
| 2/99 VH11/VL4 (antibody, V domains shown) VH: QQLLESGGGLVQPGGSLRLSCAASGFSLSSYAMSWVRQAPGKGLEWVGYIWSGGSTDYADSVKGRFTISRDNSKNTLYLQMNSLRAEDTAVYYCARRYGTSYPDYGDANGFDPWGQGTLVTVSS VL: AYQMTQSPSSLSASVGDRVTITCRASQSISSYLSWYQQKPGKAPKLLIYRASTLASGVPSRFSGSGSGTDFTLTISSLQPEDFATYYCQQSYSSSNVDNTFGGGTKVEIK | 0.00388 s⁻¹ |
| 2/99 VH9/VL5 (antibody, V domains shown) VH: QQLLESGGGLVQPGGSLRLSCAASGFTFSSYAMSWVRQAPGKGLEWVGYIWSGGSTDYADSVKGRFTISRDNSKNTLYLQMNSLRAEDTAVYYCAKRYGTSYPDYGDANGFDPWGQGTLVTVSS VL: DIQMTQSPSSLSASVGDRVTITCRASQSISSYLSWYQQKPGKAPKLLIYRASTLASGVPSRFSGSGSGTDFTLTISSLQPEDFATYYCQQSYSSSNVDNTFGGGTKVEIK | 0.0035 s⁻¹ |
| 2/99 VH9/VL4 (antibody, V domains shown) VH: QQLLESGGGLVQPGGSLRLSCAASGFTFSSYAMSWVRQAPGKGLEWVGYIWSGGSTDYADSVKGRFTISRDNSKNTLYLQMNSLRAEDTAVYYCAKRYGTSYPDYGDANGFDPWGQGTLVTVSS VL: AYQMTQSPSSLSASVGDRVTITCRASQSISSYLSWYQQKPGKAPKLLIYRASTLASGVPSRFSGSGSGTDFTLTISSLQPEDFATYYCQQSYSSSNVDNTFGGGTKVEIK | 0.0027 s⁻¹ |
| 2/99 VH5/VL5 (antibody, V domains shown) VH: QSMEETGGGLIQPGGSLRLSCAASGFSLSSYAMSWVRQAPGKGLEWVGYIWSGGSTDYADSVKGRFTISRDNSKNTLYLQMNSLRAEDTAVYYCARRYGTSYPDYGDANGFDPWGPGTLVTVSS VL: DIQMTQSPSSLSASVGDRVTITCRASQSISSYLSWYQQKPGKAPKLLIYRASTLASGVPSRFSGSGSGTDFTLTISSLQPEDFATYYCQQSYSSSNVDNTFGGGTKVEIK | 0.00253 s⁻¹ |
| 2/99 VH7/VL5 (antibody, V domains shown) VH: QQLVETGGGLIQPGGSLRLSCAASGFSLSSYAMSWVRQAPGKGLEWIGYIWSGGSTDYASWAKGRFTISRDNSKNTLYLQMNSLRAEDTAVYYCARRYGTSYPDYGDANGFDPWGQGTLVTVSS VL: DIQMTQSPSSLSASVGDRVTITCRASQSISSYLSWYQQKPGKAPKLLIYRASTLASGVPSRFSGSGSGTDFTLTISSLQPEDFATYYCQQSYSSSNVDNTFGGGTKVEIK | 0.00135 s⁻¹ |
| 2/99 VH1/VL5 (antibody, V domains shown) VH: VQLVETGGGLIQPGGSLRLSCAASGFSLSSYAMSWVRQAPGKGLEWVGYIWSGGSTDYADSVKGRFTISRDNSKNTLYLQMNSLRAEDTAVYYCARRYGTSYPDYGDANGFDPWGQGTLVTVSS VL: DIQMTQSPSSLSASVGDRVTITCRASQSISSYLSWYQQKPGKAPKLLIYRASTLASGVPSRFSGSGSGTDFTLTISSLQPEDFATYYCQQSYSSSNVDNTFGGGTKVEIK | 0.00271 s⁻¹ |
| 2/99 VH6/VL5 (antibody, V domains shown) VH: QQLVETGGGLIQPGGSLRLSCAASGFSLSSYAMSWVRQAPGKGLEWIGYIWSGGSTDYADSVKGRFTISRDNSKNTLYLQMNSLRAEDTAVYYCARRYGTSYPDYGDANGFDPWGQGTLVTVSS VL: DIQMTQSPSSLSASVGDRVTITCRASQSISSYLSWYQQKPGKAPKLLIYRASTLASGVPSRFSGSGSGTDFTLTISSLQPEDFATYYCQQSYSSSNVDNTFGGGTKVEIK | 0.00166 s⁻¹ |

Next, values leading:

| koff | Binder |
| --- | --- |
| 0.00456 s⁻¹ | 2/99 VH11/VL5 (antibody, V domains shown) VH: QQLLESGGGLVQPGGSLRLSCAASGFSLSSYAMSWVRQAPGKGLEWVGYIWSGGSTDYADSVKGRFTISRDNSKNTLYLQMNSLRAEDTAVYYCARRYGTSYPDYGDANGFDPWGQGTLVTVSS VL: DIQMTQSPSSLSASVGDRVTITCRASQSISSYLSWYQQKPGKAPKLLIYRASTLASGVPSRFSGSGSGTDFTLTISSLQPEDFATYYCQQSYSSSNVDNTFGGGTKVEIK |
| 0.00127 s⁻¹ | 2/99 VH16/VL4 (antibody, V domains shown) VH: QQLQESGPGLVKPSETLSLTCTVSGFSLSSYAMSWVRQPPGKGLEWIGYIWSGGSTDYNPSLKSRVTISVDTSKNQVSLKLSSVTAADTAVYYCARRYGTSYPDYGDANGFDPWGPGTLVTVSS VL: AYQMTQSPSSLSASVGDRVTITCRASQSISSYLSWYQQKPGKAPKLLIYRASTLASGVPSRFSGSGSGTDFTLTISSLQPEDFATYYCQQSYSSSNVDNTFGGGTKVEIK |
| 0.00118 s⁻¹ | 2/99 VH22/VL4 (antibody, V domains shown) VH: QSMQESGPGLVKPSQTLSLTCTVSGFSLSSYAMSWVRQHPGKGLEWIGYIWSGGSTDYASWAKSRVTISVDTSKNQVSLKLSSVTAADTAVYYCARRYGTSYPDYGDANGFDPWGQGTLVTVSS VL: AYQMTQSPSSLSASVGDRVTITCRASQSISSYLSWYQQKPGKAPKLLIYRASTLASGVPSRFSGSGSGTDFTLTISSLQPEDFATYYCQQSYSSSNVDNTFGGGTKVEIK |
| 0.0013 s⁻¹ | 2/99 VH13/VL4 (antibody, V domains shown) VH: QVQLQESGPGLVKPSETLSLTCTVSGFSLSSYAMSWIRQPPGKGLEWIGYIWSGGSTDYNPSLKSRVTISVDTSKNQVSLKLSSVTAADTAVYYCARRYGTSYPDYGDANGFDPWGQGTLVTVSS VL: AYQMTQSPSSLSASVGDRVTITCRASQSISSYLSWYQQKPGKAPKLLIYRASTLASGVPSRFSGSGSGTDFTLTISSLQPEDFATYYCQQSYSSSNVDNTFGGGTKVEIK |
| 0.001 s⁻¹ | 2/99 VH19/VL4 (antibody, V domains shown) VH: QSMQESGPGLVKPSQTLSLTCTVSGFSLSSYAMSWIRQHPGKGLEWIGYIWSGGSTDYAPSLKSRVTISVDTSKNQFSLKLSSVTAADTAVYYCARRYGTSYPDYGDANGFDPWGQGTLVTVSS VL: AYQMTQSPSSLSASVGDRVTITCRASQSISSYLSWYQQKPGKAPKLLIYRASTLASGVPSRFSGSGSGTDFTLTISSLQPEDFATYYCQQSYSSSNVDNTFGGGTKVEIK |
| 0.00311 s⁻¹ | 2/99 VH12/VL4 (antibody, V domains shown) VH: QVQLQESGPGLVKPSETLSLTCTVSGFSLSSYAMSWIRQPPGKGLEWIGYIWSGGSTDYNPSLKSRVTISVDTSKNQFSLKLSSVTAADTAVYYCARRYGTSYPDYGDANGFDPWGQGTLVTVSS VL: AYQMTQSPSSLSASVGDRVTITCRASQSISSYLSWYQQKPGKAPKLLIYRASTLASGVPSRFSGSGSGTDFTLTISSLQPEDFATYYCQQSYSSSNVDNTFGGGTKVEIK |
| 0.00134 s⁻¹ | 2/99 VH15/VL4 (antibody, V domains shown) VH: QQLQESGPGLVKPSETLSLTCTVSGFSLSSYAMSWVRQPPGKGLEWIGYIWSGGSTDYNPSLKSRVTISVDTSKNQVSLKLSSVTAADTAVYYCARRYGTSYPDYGDANGFDPWGQGTLVTVSS VL: AYQMTQSPSSLSASVGDRVTITCRASQSISSYLSWYQQKPGKAPKLLIYRASTLASGVPSRFSGSGSGTDFTLTISSLQPEDFATYYCQQSYSSSNVDNTFGGGTKVEIK |
| 0.000723 s⁻¹ | 2/99 VH17/VL4 (antibody, V domains shown) VH: QQLQESGPGLVKPSETLSLTCTVSGFSLSSYAMSWVRQPPGKGLEWIGYIWSGGSTDYNPSLKSRVTISKDTSKNQVSLKLSSVTAADTAVYYCARRYGTSYPDYGDANGFDPWGPGTLVTVSS VL: AYQMTQSPSSLSASVGDRVTITCRASQSISSYLSWYQQKPGKAPKLLIYRASTLASGVPSRFSGSGSGTDFTLTISSLQPEDFATYYCQQSYSSSNVDNTFGGGTKVEIK |
| 0.00335 s⁻¹ | 2/99 VH18/VL4 (antibody, V domains shown) VH: QVQLQESGPGLVKPSQTLSLTCTVSGFSLSSYAMSWIRQHPGKGLEWIGYIWSGGSTDYAPSLKSRVTISVDTSKNQFSLKLSSVTAADTAVYYCARRYGTSYPDYGDANGFDPWGQGTLVTVSS VL: AYQMTQSPSSLSASVGDRVTITCRASQSISSYLSWYQQKPGKAPKLLIYRASTLASGVPSRFSGSGSGTDFTLTISSLQPEDFATYYCQQSYSSSNVDNTFGGGTKVEIK |
| 0.00436 s⁻¹ | 2/99 VH20/VL4 (antibody, V domains shown) VH: QSMQESGPGLVKPSQTLSLTCTVSGFSLSSYAMSWIRQHPGKGLEWIGYIWSGGSTDYAPSLKSRVTISVDTSKNQVSLKLSSVTAADTAVYYCARRYGTSYPDYGDANGFDPWGQGTLVTVSS VL: AYQMTQSPSSLSASVGDRVTITCRASQSISSYLSWYQQKPGKAPKLLIYRASTLASGVPSRFSGSGSGTDFTLTISSLQPEDFATYYCQQSYSSSNVDNTFGGGTKVEIK |
| 0.00146 s⁻¹ | 2/99 VH21/VL4 (antibody, V domains shown) VH: QSMQESGPGLVKPSQTLSLTCTVSGFSLSSYAMSWIRQHPGKGLEWIGYIWSGGSTDYASWAKSRVTISVDTSKNQVSLKLSSVTAADTAVYYCARRYGTSYPDYGDANGFDPWGQGTLVTVSS VL: AYQMTQSPSSLSASVGDRVTITCRASQSISSYLSWYQQKPGKAPKLLIYRASTLASGVPSRFSGSGSGTDFTLTISSLQPEDFATYYCQQSYSSSNVDNTFGGGTKVEIK |
| 0.000761 s⁻¹ | 2/99 VH23-DANG/VL4 (antibody, V domains shown) VH: QSMQESGPGLVKPSQTLSLTCTVSGFSLSSYAMSWIRQHPGKGLEWIGYIWSGGSTDYASWAKSRVTISKTSTTVSLKLSSVTAADTAVYYCARRYGTSYPDYGDANGFDPWGQGTLVTVSS VL: AYQMTQSPSSLSASVGDRVTITCRASQSISSYLSWYQQKPGKAPKLLIYRASTLASGVPSRFSGSGSGTDFTLTISSLQPEDFATYYCQQSYSSSNVDNTFGGGTKVEIK |
